Results: PMC6237754, “A monovalent ion in the DNA binding interface of the eukaryotic junction-resolving enzyme GEN1”

Molecular target: T1, CtGEN1 (Chaetomium thermophilum, UniProt G0RYN2 1-487)
T1 sequence: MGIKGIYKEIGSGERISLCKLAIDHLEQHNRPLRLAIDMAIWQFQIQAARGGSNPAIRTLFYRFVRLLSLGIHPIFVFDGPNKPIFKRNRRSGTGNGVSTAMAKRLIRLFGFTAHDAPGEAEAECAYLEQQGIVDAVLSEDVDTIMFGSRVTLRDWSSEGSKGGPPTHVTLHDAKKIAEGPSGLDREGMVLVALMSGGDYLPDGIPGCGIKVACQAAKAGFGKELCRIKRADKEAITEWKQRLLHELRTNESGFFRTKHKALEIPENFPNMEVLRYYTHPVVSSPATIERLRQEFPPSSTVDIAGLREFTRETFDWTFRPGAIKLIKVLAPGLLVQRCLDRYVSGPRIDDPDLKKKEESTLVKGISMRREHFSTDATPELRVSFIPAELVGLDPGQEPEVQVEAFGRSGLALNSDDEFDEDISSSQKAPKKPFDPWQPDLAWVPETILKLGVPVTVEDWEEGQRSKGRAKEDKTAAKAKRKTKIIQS
Test: EMSA; 100 mM KCl; EMSA: equal volumes of DNA in 10 mM Tris pH 7.5, 0.1% BSA, 100 mM KCl or NaCl and CtGEN1 in 10 mM Tris pH 7.5, 100 mM NDSB-195, 0.1% BSA, 1 mM EDTA; 20 min, 20
Conditions: protein: recombinant; tags: C-terminal His6; chain copies: 2; label: 5'-32P; four-way junction; strands b/h/r/x, 50 nt each

B1: four-way junction 3 (4H) (structured_DNA)
DNA 1: CCTCGAGGGATCCGTCCTAGCAAGGGGCTGCTACCGGAAGCTTACAGATG
DNA 2: CATCTGTAAGCTTCCGGTAGCAGCCTGAGCGGTGGTTGAATTCACAGATG
DNA 3: CATCTGTGAATTCAACCACCGCTCAACTCAACTGCAGTCTAGAACACATG
DNA 4: CATGTGTTCTAGACTGCAGTTGAGTCCTTGCTAGGACGGATCCCTCGAGG
B1 was tested. Which binding signal did it give?
Its binding signal is ~2 fold higher affinity than in Na+.
